Experimental data reported in PMC11910319, “Inhibition of L-threonine dehydrogenase from Trypanosoma cruzi reduces glycine and acetate production and interferes with parasite growth and viability” (The Journal of Biological Chemistry, 2024).
One block for each molecule: values may come before it.

Legend:
[1] = target: Trypanosoma cruzi L-threonine dehydrogenase (TcTDH), recombinant wild type (Trypanosoma cruzi (CL Brener Esmeraldo-like strain)); experiment: SEC; data not shown; quaternary structure in solution
[2] = target: T1, T. cruzi L-threonine dehydrogenase (TcTDH) (Trypanosoma cruzi, UniProt Q4CU39); experiment: recombinant enzyme, diaphorase/resazurin coupled fluorescence assay; Ki by direct NADH fluorescence (Ki-Thr […], Ki-NAD+[…]); assay type: biochemical
T1 construct: gene Tc00.1047053507923.10; recombinant TcTDH, codon-optimized gene in pET28a, His-tag purified
T1 sequence (Q4CU39 1-332): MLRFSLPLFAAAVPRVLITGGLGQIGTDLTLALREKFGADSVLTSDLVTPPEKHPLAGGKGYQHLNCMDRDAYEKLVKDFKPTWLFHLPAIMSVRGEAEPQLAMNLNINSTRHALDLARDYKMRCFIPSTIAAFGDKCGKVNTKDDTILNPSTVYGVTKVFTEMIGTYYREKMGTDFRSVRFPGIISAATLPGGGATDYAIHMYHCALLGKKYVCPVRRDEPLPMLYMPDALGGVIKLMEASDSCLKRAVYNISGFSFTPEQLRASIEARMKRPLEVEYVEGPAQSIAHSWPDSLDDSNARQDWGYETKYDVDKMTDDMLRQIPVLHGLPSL

purified protein = substrate: C[C@@H](O)[C@H](N)C(=O)O; experiment: purified protein; assay type: biochemical, Trypanosoma cruzi; details: NAD+; K+ ([…] KCl)

stoichiometry N [1]: 2
Molecule: Trypanosoma cruzi L-threonine dehydrogenase (TcTDH), recombinant wild type (enzyme)

IC50 [2]: 3.5 µM
Molecule: CCOc1ccc(NC(=O)/C=C/c2ccc(CC)o2)cc1 [TCMDC-143160]

B1: T. cruzi L-threonine dehydrogenase (TcTDH) (Trypanosoma cruzi strain CL Brener) (protein)
chain: T1 sequence (Q4CU39 1-332)
notes: recombinant TcTDH
Km (purified protein): 6.6 mM
